{"source": "paper PMC7952408", "details": "N-glycosylation at N297", "note": "Entries after “also recorded” stand apart in the source; their conditions may differ."}
{"substance": "Maxatezo / Atezolizumab (anti-PD-L1 human IgG1) heavy chain: N297A (Atezolizumab) compared with A297N back-mutation + GGGS insertion (Maxatezo)", "values": [{"measurement": "expression_or_secretion", "value": "decreases, 1.3 g/L (aglycosylated) vs up to 4 g/L (Maxatezo)"}, {"measurement": "other", "value": "increases"}, {"measurement": "stability_or_folding", "value": "decreases, Tm1 71.01 °C (Maxatezo) vs 63.55 °C (Atezolizumab), 7.46 °C difference; also recorded: decreases, Tagg 71.2 °C (Maxatezo) vs 60.7 °C (Atezolizumab), 10.5 °C difference"}]}
